Laboratory results from patent US20150313990A1.
No end group written: not given here.

Experiments:
[1] = molecular target: HIV-1 BaL virions (virion-associated envelope gp120, stock grown in primary CD4+ T cells) (HIV-1 BaL); experiment: cell-based or functional assay
[2] = molecular target: recombinant soluble CD4 (number of domains not stated), P01730; experiment: SPR; biotinylated pV2α (235 RU) on neutravidin-coated CM3 chip, recombinant soluble CD4 in solution; koff-KD distribution model
[3] = molecular target: recombinant soluble gp120 (isolate YU2) (HIV-1 isolate YU2), P35961; experiment: SPR; biotinylated pV2α (235 RU) on neutravidin-coated CM3 chip, gp120 YU2 in solution at 2, 4, 8 and 16 nM; koff-KD distribution model

| Binder | IC50 of inhibition of acute infection of primary human CD4+ T cells by HIV-1 BaL [1] [µM] | Kd [2] [µM] | koff [2] [s⁻¹] | Kd [3] [µM] | koff [3] [s⁻¹] |
| --- | --- | --- | --- | --- | --- |
| KVQKEYALFYELDIVPID (modifications not checked) [peptide pV2α-Tys (tyrosine-sulfated variant of peptide pV2α)] | 15 | – | – | – | – |
| KVQKEYALFYELDIVPID (not fully specified) [biotinylated peptide pV2α (captured on neutravidin chip or biotin-captured in ELISA)] | – | 4000 | 0.013 | 0.0009 | 6.4e-05 |
